Assay results taken from PMC7664933, “Enzyme Properties of a Laccase Obtained from the Transcriptome of the Marine-Derived Fungus Stemphylium lucomagnoense” (International Journal of Molecular Sciences, 2020).

Tests used:
Test in all cases: spectrophotometric oxidation assay, Michaelis-Menten fit
Assay type in all cases: biochemical, Stemphylium lucomagnoense
[1] = substrate: COc1cccc(OC)c1O; settings: 50 mM sodium acetate, pH 5.0, 30 °C, free enzyme, pH 5.0
Description: (§1) spectrophotometric oxidation assay, Michaelis-Menten fit on SlLac2

[2] = substrate: COc1cc(C=NN=Cc2cc(OC)c(O)c(OC)c2)cc(OC)c1O; settings: 50 mM sodium acetate, pH 6.0, 30 °C, free enzyme, pH 6.0
Description: as §1

[3] = substrate: CCn1c(=NN=c2sc3cc(S(=O)(=O)O)ccc3n2CC)sc2cc(S(=O)(=O)O)ccc21; settings: 50 mM sodium acetate, pH 4.0, 30 °C, free enzyme, pH 4.0
Description: as §1

B1: SlLac2 (Stemphylium lucomagnoense) (protein)
chain: AVLPVELPNPAPFTPKRDGLEERQSPASCINVGHTPKTRHCWAQGFTSSTDMYTSWPNTGVIRSYNLRLENTTCNPDGAGSRVCLLINGRFLGPTIVANWGDTIRVTVRNNLQSNGTSIHWHGFRMLNKNIQDGVNGITECALAPGDFKTYQFQATEYGTTWYHSHFSHQYGDGVVGTVIVNGPATANYDEDLGVMPITDWYYNTAFQAASIAFQNGQAGLGPPVGDNILINGTAKNAAGGGAWNRVTIQAGKRYRLRLVNTAVDTNMLVNLDGHPFQVIATDFVPINPYNTTHLQIGIGQRYDVIINANQTAGNYWFRATADGLCQSRNAREGRAIFTYQGQPVADPTSTAPTVPFTACLDPVTTPKIVKNVPSSTFAAQAKNLPVAFGPVAANGNTVLWTINGTSMIIDPGKPTIKYVAENNNSFPQSYNVVKVPATSASTWTYWVIQQAVGAPPIAHPIHLHGHDSYILGAGDGQFNAATHFSQLRFTNPPRRDVSQLKGNGWLVIAYPTDNPGAWLMHCHIAFHVGMGLSVQFLERKQQIVLPATGSEWYNNCNNWAAYKAGNTDVWPQDDSGLKKRWPPLIEDGSVL
notes: full-length mature laccase (592 residues; precursor 613 with 21-residue signal peptide replaced by A. niger glucoamylase 24-residue prepropeptide, correctly cleaved off); codon-optimised synthetic gene; secreted from Aspergillus niger D15#26; no tag; N-glycosylated, about 75 kDa by SDS-PAGE
[1]
  Km: 24 ± 3.9 µM
  kcat: 0.0059 ± 0.0003 s⁻¹
  kcat/Km: 240 M⁻¹ s⁻¹
[2]
  Km: 3.5 ± 0.57 µM
  kcat: 0.0074 ± 0.0002 s⁻¹
  kcat/Km: 2110 M⁻¹ s⁻¹
[3]
  Km: 20.6 ± 3.9 µM
  kcat: 0.153 ± 0.0026 s⁻¹
  kcat/Km: 7420 M⁻¹ s⁻¹
